Results published in patent publication US10441663B2, “Methods for treating cancer” (Bicycle Therapeutics Limited, priority 2016, dated 2019).
“Also recorded” adds a separate entry of the source. *1 amine or outer side, *2 acyl side, *3 side chain or, on linkers, in order; H or OH if unused. Where a SMILES comes first, the peptide text is derived from it. Bridges are numbered along the chain shown (N, C = ends). [ ]: non-standard residue; d: D form. The star is where a group is joined. X1 = COc1cc2cc(c1Cl)N(C)C(=O)C[C@H](OC(=O)[C@H](C)N(C)C(=O)CCSSC(C)CCC(=O)*)[C@]1(C)O[C@H]1[C@H](C)[C@@H]1C[C@@](O)(NC(=O)O1)[C@H](OC)/C=C/C=C(\C)C2; 1Nal = N[C@@H](Cc1cccc2ccccc12)C(=O)O; TBMB = c1c(C[*:1])cc(C[*:3])cc1C[*:2]; Tle = CC(C)(C)[C@H](N)C(=O)O; βAla = NCCC(=O)O; Sar = CNCC(=O)O

System: EBC-1 xenograft
Experiment: Efficacy of BT1718 in EBC-1 xenograft model (Example 1)
Assay type: in vivo, Mus Musculus
Conditions: for Tumor Size (mm^3): Mean ± SEM
Experimental: The objective of this study was to evaluate the anti-tumor efficacy of BT1718 in EBC-1 xenograft model in female BALB/c nude mice.
The EBC-1 tumor cells were maintained in vitro as a monolayer culture in EMEM medium supplemented with 10% heat inactivated fetal bovine serum at 37° C. in an atmosphere of 5% CO2 in air. The tumor cells will be routinely subcultured twice weekly by trypsin-EDTA treatment. The cells growing in an exponential growth phase will be harvested and counted for tumor inoculation.
Each mouse was inoculated subcutaneously at the right flank with EBC-1 tumor cells (10×10^6) in 0.2 ml of PBS for tumor development. The animals were randomized and treatment was started when the average tumor volume reaches approximately 165 mm^3 for the efficacy study.
All the procedures related to animal handling, care and the treatment in the study were performed according to the guidelines of the Association for Assessment and Accreditation of Laboratory Animal Care (AAALAC). At the time of routine monitoring, the animals were daily checked for any effects of tumor growth and treatments on normal behavior such as mobility, food and water consumption (by looking only), body weight gain/loss (body weights were measured every day), eye/hair matting and any other abnormal effect as stated in the protocol. Death and observed clinical signs were recorded on the basis of the numbers of animals within each subset.
The major endpoint was to see if the tumor growth could be delayed or mice could be cured. Tumor size was measured three times weekly in two dimensions using a caliper, and the volume was expressed in mm^3 using the formula: V=0.5 a×b^2 where a and b are the long and short diameters of the tumor, respectively. The tumor size was then used for calculations of T/C value. The T/C value (in percent) is an indication of antitumor effectiveness; T and C are the mean volumes of the treated and control groups, respectively, on a given day.
TGI was calculated for each group using the formula: TGI (%)=[1−(Ti−T0)/(Vi−V0)]×100; Ti is the average tumor volume of a treatment group on a given day, T0 is the average tumor volume of the treatment group on the day of treatment start, Vi is the average tumor volume of the vehicle control group on the same day with Ti, and V0 is the average tumor volume of the vehicle group on the day of treatment start.
Summary statistics, including mean and the standard error of the mean (SEM), are provided for the tumor volume of each group at each time point.
Statistical analysis of difference in tumor volume among the groups was conducted on the data obtained at the best therapeutic time point after the final dose.
A one-way ANOVA was performed to compare tumor volume among groups, and when a significant F-statistics (a ratio of treatment variance to the error variance) was obtained, comparisons between groups were carried out with Games-Howell test. All data were analyzed using Prism. P<0.05 was considered to be statistically significant.

SMILES: COc1cc2cc(c1Cl)N(C)C(=O)C[C@H](OC(=O)[C@H](C)N(C)C(=O)CCSSC(C)CCC(=O)NCCC(=O)N(C)CC(=O)N(C)CC(=O)N(C)CC(=O)N(C)CC(=O)N(C)CC(=O)N(C)CC(=O)N(C)CC(=O)N(C)CC(=O)N(C)CC(=O)N(C)CC(=O)N[C@@H](C)C(=O)N[C@H]1CSCc3cc4cc(c3)CSC[C@H](NC(=O)[C@@H](C)NC(=O)[C@H](Cc3cccc5ccccc35)NC(=O)[C@H](CCC(=O)O)NC(=O)[C@H](CC(N)=O)NC(=O)[C@@H](C)NC1=O)C(=O)N[C@@H](CCC(=O)O)C(=O)N[C@@H](CC(=O)O)C(=O)N[C@@H](Cc1ccccc1)C(=O)N[C@@H](Cc1ccc(O)cc1)C(=O)N[C@@H](CC(=O)O)C(=O)N[C@@H](C(C)(C)C)C(=O)N[C@H](C(N)=O)CSC4)[C@]1(C)O[C@H]1[C@H](C)[C@@H]1C[C@@](O)(NC(=O)O1)[C@H](OC)/C=C/C=C(\C)C2 (some centres unmarked) [BT1718] ({X1-βAla}-[Sar][Sar][Sar][Sar][Sar][Sar][Sar][Sar][Sar][Sar]AC[dA]NE[1Nal][dA]CEDFYD[Tle]C-NH2; linker 12-18-25 via TBMB (inferred))
- tumor growth (3 mg/kg, twice weekly for two weeks): significant reduction in tumor growth
- post-treatment monitoring (9 mg/kg qw group and 4.5 mg/kg biw group): re-growth after dosing cessation
- tumor response (10 mg/kg tiw): complete tumor clearance
- tumor response (10 mg/kg, twice weekly for two weeks): complete regressions
- body weight effect (30 mg/kg qw): marked body weight loss; also recorded: severe body weight loss
- tumor response (30 mg/kg qw, 15 mg/kg biw, 10 mg/kg tiw and 4.3 mg/kg qd, by day 14): completely regressed the tumor
- Body Weight (1.3 mpk qd, day 0): 25.1 ± 0.3 g
- Body Weight (% Change) (1.3 mpk qd, day 0): 0.0%
- Tumor Volume (1.3 mpk qd, day 0): 161 ± 22 mm^3
- Body Weight (1.3 mpk qd, day 2): 24.6 ± 0.6 g
- Body Weight (% Change) (1.3 mpk qd, day 2): −2.0 ± 2.6%
- Tumor Volume (1.3 mpk qd, day 2): 204 ± 30 mm^3
- Body Weight (1.3 mpk qd, day 4): 24.9 ± 0.5 g
- Body Weight (% Change) (1.3 mpk qd, day 4): −0.8 ± 1.7%
- Tumor Volume (1.3 mpk qd, day 4): 243 ± 36 mm^3
- Body Weight (1.3 mpk qd, day 7): 24.2 ± 0.5 g
- Body Weight (% Change) (1.3 mpk qd, day 7): −3.5 ± 1.3%
- Tumor Volume (1.3 mpk qd, day 7): 278 ± 35 mm^3
- Body Weight (1.3 mpk qd, day 9): 24.5 ± 0.5 g
- Body Weight (% Change) (1.3 mpk qd, day 9): −2.2 ± 2.0%
- Tumor Volume (1.3 mpk qd, day 9): 326 ± 46 mm^3
- Body Weight (1.3 mpk qd, day 11): 25.4 ± 0.4 g
- Body Weight (% Change) (1.3 mpk qd, day 11): 1.3 ± 1.4%
- Tumor Volume (1.3 mpk qd, day 11): 370 ± 40 mm^3
- Body Weight (1.3 mpk qd, day 14): 25.2 ± 0.8 g
- Body Weight (% Change) (1.3 mpk qd, day 14): 0.5 ± 3.2%
- T/C (%) (1.3 mpk qd, day 14): 38%
- TGI (%) (1.3 mpk qd, day 14): 71%
- Tumor Volume (1.3 mpk qd, day 14): 473 ± 44 mm^3
- Tumor Size (mm^3) (1.3 mpk qd, day 14): 473 ± 44 mm^3
- Body Weight (3 mpk tiw, day 0): 24.0 ± 0.2 g
- Body Weight (% Change) (3 mpk tiw, day 0): 0.0%
- Tumor Volume (3 mpk tiw, day 0): 165 ± 13 mm^3
- Body Weight (3 mpk tiw, day 2): 23.8 ± 0.3 g
- Body Weight (% Change) (3 mpk tiw, day 2): −1.0 ± 0.9%
- Tumor Volume (3 mpk tiw, day 2): 251 ± 18 mm^3
- Body Weight (3 mpk tiw, day 4): 24.1 ± 0.3 g
- Body Weight (% Change) (3 mpk tiw, day 4): 0.3 ± 0.7%
- Tumor Volume (3 mpk tiw, day 4): 381 ± 26 mm^3
- Body Weight (3 mpk tiw, day 7): 24.5 ± 0.2 g
- Body Weight (% Change) (3 mpk tiw, day 7): 2.0 ± 0.2%
- Tumor Volume (3 mpk tiw, day 7): 501 ± 41 mm^3
- Body Weight (3 mpk tiw, day 9): 24.7 ± 0.2 g
- Body Weight (% Change) (3 mpk tiw, day 9): 2.8 ± 0.6%
- Tumor Volume (3 mpk tiw, day 9): 525 ± 40 mm^3
- Body Weight (3 mpk tiw, day 11): 24.7 ± 0.2 g
- Body Weight (% Change) (3 mpk tiw, day 11): 3.1 ± 1.0%
- Tumor Volume (3 mpk tiw, day 11): 540 ± 46 mm^3
- Body Weight (3 mpk tiw, day 14): 25.1 ± 0.2 g
- Body Weight (% Change) (3 mpk tiw, day 14): 4.6 ± 1.5%
- T/C (%) (3 mpk tiw, day 14): 52%
- TGI (%) (3 mpk tiw, day 14): 56%
- Tumor Volume (3 mpk tiw, day 14): 644 ± 56 mm^3
- Tumor Size (mm^3) (3 mpk tiw, day 14): 644 ± 56 mm^3
- Body Weight (4.3 mpk qd, day 0): 24.8 ± 0.4 g
- Body Weight (% Change) (4.3 mpk qd, day 0): 0.0%
- Tumor Volume (4.3 mpk qd, day 0): 165 ± 18 mm^3
- Body Weight (4.3 mpk qd, day 2): 23.9 ± 0.5 g
- Body Weight (% Change) (4.3 mpk qd, day 2): −3.4 ± 1.1%
- Tumor Volume (4.3 mpk qd, day 2): 209 ± 7 mm^3
- Body Weight (4.3 mpk qd, day 4): 23.6 ± 0.8 g
- Body Weight (% Change) (4.3 mpk qd, day 4): −4.6 ± 2.0%
- Tumor Volume (4.3 mpk qd, day 4): 154 ± 10 mm^3
- Body Weight (4.3 mpk qd, day 7): 23.7 ± 0.5 g
- Body Weight (% Change) (4.3 mpk qd, day 7): −4.2 ± 1.3%
- Tumor Volume (4.3 mpk qd, day 7): 81 ± 3 mm^3
- Body Weight (4.3 mpk qd, day 9): 23.5 ± 0.5 g
- Body Weight (% Change) (4.3 mpk qd, day 9): −5.2 ± 1.2%
- Tumor Volume (4.3 mpk qd, day 9): 39 ± 3 mm^3
- Body Weight (4.3 mpk qd, day 11): 24.7 ± 0.7 g
- Body Weight (% Change) (4.3 mpk qd, day 11): −0.4 ± 1.7%
- Tumor Volume (4.3 mpk qd, day 11): 6 ± 3 mm^3
- Body Weight (4.3 mpk qd, day 14): 23.5 ± 0.6 g
- Body Weight (% Change) (4.3 mpk qd, day 14): −5.1 ± 1.9%
- T/C (%) (4.3 mpk qd, day 14): 0%
- TGI (%) (4.3 mpk qd, day 14): 115%
- Tumor Volume (4.3 mpk qd, day 14): 0 ± 0 mm^3
- Tumor Size (mm^3) (4.3 mpk qd, day 14): 0 ± 0 mm^3
- Body Weight (4.5 mpk biw, day 0): 24.0 ± 0.6 g
- Body Weight (% Change) (4.5 mpk biw, day 0): 0.0%
- Tumor Volume (4.5 mpk biw, day 0): 161 ± 21 mm^3
- Body Weight (4.5 mpk biw, day 2): 23.4 ± 0.6 g
- Body Weight (% Change) (4.5 mpk biw, day 2): −2.2 ± 1.0%
- Tumor Volume (4.5 mpk biw, day 2): 239 ± 15 mm^3
- Body Weight (4.5 mpk biw, day 4): 23.7 ± 0.6 g
- Body Weight (% Change) (4.5 mpk biw, day 4): −1.3 ± 0.7%
- Tumor Volume (4.5 mpk biw, day 4): 276 ± 28 mm^3
- Body Weight (4.5 mpk biw, day 7): 24.8 ± 0.7 g
- Body Weight (% Change) (4.5 mpk biw, day 7): 3.3 ± 0.9%
- Tumor Volume (4.5 mpk biw, day 7): 296 ± 29 mm^3
- Body Weight (4.5 mpk biw, day 9): 24.2 ± 0.6 g
- Body Weight (% Change) (4.5 mpk biw, day 9): 1.0 ± 0.7%
- Tumor Volume (4.5 mpk biw, day 9): 285 ± 19 mm^3
- Body Weight (4.5 mpk biw, day 11): 24.5 ± 0.7 g
- Body Weight (% Change) (4.5 mpk biw, day 11): 2.4 ± 1.1%
- Tumor Volume (4.5 mpk biw, day 11): 254 ± 46 mm^3
- Body Weight (4.5 mpk biw, day 14): 25.1 ± 0.6 g
- Body Weight (% Change) (4.5 mpk biw, day 14): 5.0 ± 0.7%
- T/C (%) (4.5 mpk biw, day 14): 23%
- TGI (%) (4.5 mpk biw, day 14): 89%
- Tumor Volume (4.5 mpk biw, day 14): 285 ± 49 mm^3
- Tumor Size (mm^3) (4.5 mpk biw, day 14): 285 ± 49 mm^3
- Body Weight (4.5 mpk biw, day 16): 24.7 ± 0.8 g
- Body Weight (% Change) (4.5 mpk biw, day 16): 3.1 ± 1.5%
- Tumor Volume (4.5 mpk biw, day 16): 331 ± 60 mm^3
- Body Weight (4.5 mpk biw, day 18): 25.2 ± 0.8 g
- Body Weight (% Change) (4.5 mpk biw, day 18): 5.3 ± 1.6%
- Tumor Volume (4.5 mpk biw, day 18): 409 ± 97 mm^3
- Body Weight (4.5 mpk biw, day 21): 25.2 ± 0.7 g
- Body Weight (% Change) (4.5 mpk biw, day 21): 5.2 ± 1.4%
